Assay results reported in patent publication US20200317768A1 (published 2020).

Legend:
Assay in all cases: SPR, antibody captured, FcgR analyte
[1] = target: T1, cynomolgus monkey FcγRIIa1 extracellular domain, His-tagged (cynomolgus monkey)
T1 construct: also called cyno FcγRIIa1; cynoFcgRIIa1
T1 chain: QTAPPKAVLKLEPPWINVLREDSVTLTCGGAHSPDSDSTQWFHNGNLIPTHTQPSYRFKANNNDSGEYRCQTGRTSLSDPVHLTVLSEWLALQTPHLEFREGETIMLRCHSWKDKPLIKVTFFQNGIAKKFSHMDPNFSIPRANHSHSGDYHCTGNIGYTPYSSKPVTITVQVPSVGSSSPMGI
Description: (§1) The kinetic analysis of interactions between these antibodies and FcγR was carried out using BIACORE® T200 or BIACORE® 4000 (GE Healthcare). HBS-EP+ (GE Healthcare) was used as the running buffer, and the measurement temperature was set to 25° C. A chip produced by immobilizing Protein A. Protein A/G or mouse anti-human IgG kappa light chain (BD Biosciences) onto a Series S Sensor Chip CM4 or CM5 (GE Healthcare) by the amine-coupling method was used. […] After the measurement, the antibody captured on the chip was washed off by allowing reaction with 10 mM glycine-HCl, pH1.5 and 25 mM NaOH so that the chip was regenerated and used repeatedly. The sensorgrams obtained as measurement results were analyzed by the 1:1 Langmuir binding model using the BIACORE® Evaluation Software to calculate the binding rate constant ka (L/mol/s) and dissociation rate constant kd (l/s), and the dissociation constant KD (mol/L) was calculated from these values. […] Regarding such interactions, KD values were calculated using the following 1:1 binding model described in BIACORE® T100 Software Handbook BR1006-48 Edition AE.
(§2) The behavior of interacting molecules according to the 1:1 binding model on BIACORE® can be described by Equation 1: Req=C·R max/(KD+C)+RI, wherein, Req is a plot of steady-state binding levels to analyte concentration. C is concentration, RI is bulk refractive index contribution in the sample, and Rmax is analyte binding capacity of the surface. When this equation is rearranged, KD can be expressed as Equation 2: KD=C·Rmax/(Req−RI)−C. KD can be calculated by substituting the values of Rmax, RI, and C into Equation 1 or Equation 2. From the current measurement conditions, RI=0, C=2 μmol/L can be used.

[2] = target: T2, cynomolgus monkey FcγRIIa2 extracellular domain, His-tagged (cynomolgus monkey)
T2 construct: also called cyno FcγRIIa2; cynoFcgRIIa2
T2 chain: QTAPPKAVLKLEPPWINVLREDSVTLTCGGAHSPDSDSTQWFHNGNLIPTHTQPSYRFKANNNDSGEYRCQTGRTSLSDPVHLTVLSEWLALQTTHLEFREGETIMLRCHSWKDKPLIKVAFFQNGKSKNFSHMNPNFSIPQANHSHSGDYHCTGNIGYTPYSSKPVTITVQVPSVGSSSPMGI
Description: as §1, §2

[3] = target: T3, cynomolgus monkey FcγRIIa3 extracellular domain, His-tagged (cynomolgus monkey)
T3 construct: also called cyno FcγRIIa3; cynoFcgRIIa3
T3 chain: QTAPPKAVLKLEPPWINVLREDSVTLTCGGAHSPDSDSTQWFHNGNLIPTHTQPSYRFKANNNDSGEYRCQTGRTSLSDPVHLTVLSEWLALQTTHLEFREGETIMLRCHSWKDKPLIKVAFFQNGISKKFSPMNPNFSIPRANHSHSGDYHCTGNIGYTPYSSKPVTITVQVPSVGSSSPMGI
Description: as §1, §2

[4] = target: T4, cynomolgus monkey FcγRIIIaS extracellular domain, His-tagged (cynomolgus monkey, UniProt Q8SPW2 21-206 at identity 1.00))
T4 construct: also called cyno FcγRIIIaS; cynoFcγRIIIaS
T4 chain: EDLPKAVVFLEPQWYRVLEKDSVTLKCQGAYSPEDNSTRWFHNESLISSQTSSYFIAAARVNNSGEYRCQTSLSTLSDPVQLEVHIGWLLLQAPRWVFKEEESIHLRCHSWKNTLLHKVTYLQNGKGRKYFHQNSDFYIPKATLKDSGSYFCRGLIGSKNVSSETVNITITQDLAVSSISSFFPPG
Description: as §1, §2

[5] = target: T5, human FcγRIIaH extracellular domain, His-tagged (human, UniProt P12318 34-217)
T5 construct: also called human FcγRIIa (type H); FcgRIIaH
T5 sequence: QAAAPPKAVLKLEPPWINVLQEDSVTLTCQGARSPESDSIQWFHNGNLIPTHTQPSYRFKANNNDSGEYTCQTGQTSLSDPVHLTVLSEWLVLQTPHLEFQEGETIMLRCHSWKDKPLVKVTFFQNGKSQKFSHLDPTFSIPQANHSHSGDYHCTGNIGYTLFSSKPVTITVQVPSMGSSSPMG
Description: as §1, §2

[6] = target: T6, human FcγRIIaR extracellular domain, His-tagged (human, UniProt P12318 34-217)
T6 construct: also called human FcγRIIa (type R); FcgRIIaR
T6 chain: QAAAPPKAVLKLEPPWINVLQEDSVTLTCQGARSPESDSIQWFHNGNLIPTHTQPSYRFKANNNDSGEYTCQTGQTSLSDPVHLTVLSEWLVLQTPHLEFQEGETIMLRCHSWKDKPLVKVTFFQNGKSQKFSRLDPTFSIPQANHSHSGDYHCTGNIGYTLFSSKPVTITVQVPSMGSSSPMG
Description: as §1, §2

[7] = target: T7, human FcγRIIb extracellular domain, His-tagged (human, UniProt P31994 43-217)
T7 construct: also called FcgRIIb (human)
T7 sequence: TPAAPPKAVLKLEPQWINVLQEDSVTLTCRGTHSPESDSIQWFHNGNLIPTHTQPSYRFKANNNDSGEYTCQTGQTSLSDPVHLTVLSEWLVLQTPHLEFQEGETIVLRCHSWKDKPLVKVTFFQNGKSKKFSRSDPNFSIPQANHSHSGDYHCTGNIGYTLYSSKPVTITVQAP
Description: as §1, §2

[8] = target: T8, human FcγRIIIaV extracellular domain, His-tagged (human, UniProt P08637 17-208)
T8 construct: also called FcgRIIIaV
Description: as §1, §2

T8 sequence (P08637 17-208 F176V): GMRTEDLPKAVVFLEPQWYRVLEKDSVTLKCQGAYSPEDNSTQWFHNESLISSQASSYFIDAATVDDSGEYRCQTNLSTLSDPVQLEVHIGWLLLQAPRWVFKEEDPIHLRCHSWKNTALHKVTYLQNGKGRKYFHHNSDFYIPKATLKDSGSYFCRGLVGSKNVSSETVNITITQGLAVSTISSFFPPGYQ

B1: M103205H795-MY015/M103202L889-SK1 (antibody, human IgG1, kappa)
heavy: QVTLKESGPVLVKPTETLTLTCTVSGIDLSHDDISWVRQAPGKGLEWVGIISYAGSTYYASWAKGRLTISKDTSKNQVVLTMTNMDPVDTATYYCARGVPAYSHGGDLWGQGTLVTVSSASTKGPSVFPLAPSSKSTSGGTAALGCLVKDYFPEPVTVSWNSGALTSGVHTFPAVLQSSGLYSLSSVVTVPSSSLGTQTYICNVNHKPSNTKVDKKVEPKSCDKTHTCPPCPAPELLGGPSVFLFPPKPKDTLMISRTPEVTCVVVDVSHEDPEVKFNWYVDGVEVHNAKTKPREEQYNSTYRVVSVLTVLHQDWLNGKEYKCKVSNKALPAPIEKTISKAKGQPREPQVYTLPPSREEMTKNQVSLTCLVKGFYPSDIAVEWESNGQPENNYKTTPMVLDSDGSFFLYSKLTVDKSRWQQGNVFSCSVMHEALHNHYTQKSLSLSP
light: DIVMTQSPATLSLSPGERATLSCTSSQSVYHANWLSWFQQKPGQPPKLLIYWASTLAYGVPSRFSGSGSGTDFTLTISSLQPEDAATYYCAGGYGGGRYAFGQGTKVEIKRTVAAPSVFIFPPSDEQLKSGTASVVCLLNNFYPREAKVQWKVDNALQSGNSQESVTEQDSKDSTYSLSSTLTLSKADYEKHKVYACEVTHQGLSSPVTKSFNRGEC
notes: Substitution put into M103205H795-SG1
- Kd [1]: 1300 nM
- Kd [2]: 1500 nM
- Kd [3]: 4700 nM
- Kd [4]: 100 nM
- Kd [5]: 330 nM
- Kd [6]: 320 nM
- Kd [7]: 1600 nM
- Kd [8]: 240 nM
